Tests used:
[1] = test system: Primary human hepatic stellate cells; assay: IL-11 stimulation in the presence of DMSO or U0126, western blot; type: cell-based; details: IL-11 24 hours; U0126 10 μM
Method: FIG. 21. Western blot image showing the levels of p-ERK, ERK, p-P90RSK, P90RSK, p-LKB1, LKB1, p-AMPK, AMPK, p-mTOR, mTOR, p-p70S6K, p70S6K, p-S6RP, S6RP, SMA, and GAPDH in primary human hepatic stellate cells that are unstimulated (BL+DMSO) or stimulated for 24 hours with IL11 in the presence DMSO or U0126 (10 μM).
(§1) Primary human hepatic stellate cells and human hepatocytes were stimulated for 24 hours with IL-11 in the presence DMSO or U0126. As discussed in Example 4.4, the inventors observed that IL-11 treatment stimulates p-mTOR, p-70S6K and p-S6RP. In line with the inventors' hypothesis, administration of U0126 to IL-11-stimulated cells prevents ERK-mediated inactivation of LKB1/AMPK that stops IL11-induced mTORC1/P70S6K activation (FIG. 21 and FIG. 22, respectively).

[2] = test system: human hepatocytes; assay: as above; type: cell-based; details: IL-11 24 hours; U0126 10 μM
Method: FIG. 22. Western blot image showing the levels of p-ERK, ERK, p-P90RSK, P90RSK, p-LKB1, LKB1, p-AMPK, AMPK, p-mTOR, mTOR, p-p70S6K, p70S6K, p-S6RP, S6RP in primary human hepatocytes that are unstimulated (BL+DMSO) or stimulated for 24 hours with IL11 in the presence DMSO or U0126 (10 μM).
as §1

[3] = test system: Primary human cardiac fibroblasts; assay: IL-11-stimulated fibroblasts with Rapamycin, Wortmannin or U0126, western blot; type: cell-based; details: IL11 10 ng/ml 24 hours; Rapamycin 10 nM, Wortmannin 1 μM, U0126 10 μM
Method: FIG. 18. Western blot image showing the levels of p-LKB1, LKB1, p-AMPK, AMPK in primary human cardiac fibroblasts that are unstimulated (BL+DMSO) or stimulated with IL11 for 24 hours in the presence of either DMSO, Rapamycin, Wortmannin, or U0126. IL11(10 ng/ml), Rapamycin (10 nM), Wortmannin (1 μM), U0126 (10 μM).
Primary human cardiac fibroblasts were stimulated with IL-11 for 24 hours in the presence of either DMSO, Rapamycin (mTOR inhibitor), Wortmannin (phosphoinositide 3-kinases (PI3K) inhibitor), or U0126 (MEK1/2 inhibitor) and the levels of p-LKB1 and p-AMPK were measured by western blot (FIG. 18).

[4] = test system: rheumatoid synovial cells; details: upon treatment; cited from earlier work
[5] = test system: human hepatocytes; assay: Increasing concentrations of IL-11 or IL-6, western blot p-LKB1/p-AMPK; type: cell-based; details: 24 hours; 1.25-20 ng/ml, even at the highest concentration
Method: (§2) FIG. 23. Western blot image showing the levels of p-LKB1, LKB1, p-AMPK, AMPK in primary human hepatocytes or primary human hepatic stellate cells that are unstimulated (BL) or stimulated for 24 hours with increasing concentrations (1.25, 2.5, 5, 10 or 20 ng/ml) of IL-11 or IL-6.
(§3) Primary human hepatic stellate cells (HSCs) and human hepatocytes were stimulated for 24 hours with increasing concentrations (1.25-20 ng/ml) of IL-11 or IL-6. […] The effect of IL-11 on these markers is observable at concentrations as low as 1.25 ng/ml in both HSCs and hepatocytes.

[6] = test system: Primary human hepatic stellate cells (HSCs); assay: as above; type: cell-based; details: 24 hours; 1.25-20 ng/ml, even at the highest concentration
Method: as §2, §3

[7] = test system: AML12 cells; assay: In vitro model of senescence induction, qRT-PCR at day 7; type: cell-based, mouse; details: 2 ug/ml from day 2, H2O2 0.75 mM, vs isotype-matched control IgG
Method: Senescent hepatic mouse cells were generated from cells of the mouse hepatocyte cell line AML12 as described in Tripathi et al., Star Protocols (2020) 1:100064 (hereby incorporated by reference in its entirety).
Briefly, AML12 cells were grown to 50% confluency and senescence was induced by treating the cells with a sub-lethal concentration of H2O2 (0.75 mM) for 1 h, followed by 23 h recovery per day, for a total of 7 days (as described in Tripathi et al., Star Protocols (2020) 1:100064). From day 2 onwards, 2 ug/ml of X209/X203 or isotype-matched control IgG was added to the cultures during the 23h recovery period.
Total RNA was isolated at day 7, and levels of p21 (Cdkn1a), […], Il11 and Tgfb gene expression were evaluated by qRT-PCR. Briefly, total RNA was extracted from cell lysates using Trizol (Invitrogen) followed by RNeasy column (Qiagen) purification. cDNAs were synthesized with iScript™ cDNA synthesis kit (Bio-Rad) according to manufacturer's instructions. Gene expression analysis was performed with either TaqMan (Applied Biosystems) or fast SYBR green (Qiagen) using the StepOnePlus Real-Time PCT System (Applied Biosystems) over 40 cycles. Expression data for p21 (Cdkn1a), Il1b, Il11 and Tgfb were normalised to Gapdh expression, and fold change was calculated using the 2^−ΔΔCt method.

[8] = test system: Primary human hepatocytes; assay: Hepatocytes stimulated with IL-11, BSA or palmitate with X203, X209 or IgG, western blot; type: cell-based; details: 24 hours; antibody 2 μg/ml; IL11 10 ng/ml or palmitate 0.5 mM
Method: FIG. 20. Western blot image showing the levels of p-ERK, ERK, p-P90RSK, P90RSK, p-LKB1, LKB1, p-AMPK, AMPK, p-Acetyl-CoA Carboxylase (p-ACC), Acetyl-CoA Carboxylase (ACC), p-mTOR, mTOR, p-p70S6K, p70S6K, p-S6RP, S6RP in primary human hepatocytes that are unstimulated (BL) or stimulated for 24 hours with either IL11, 0.5% BSA, or palmitate (saturated fatty acid) in the presence of X203, X209, or IgG (11E10) isotype control. IL11 (10 ng/ml), IgG/X203/X209 (2 μg/ml), palmitate (0.5 mM) conjugated in free BSA (0.5% BSA solution) in the ratio of 6:1.
Primary human hepatocytes (stimulated with IL-11, BSA or palmitate, or unstimulated) were treated with X203 (anti-IL-11 antagonist antibody) and X209 (anti-IL-11Rα antagonist antibody). […] Treatment with X203 or X209 essentially reverses the effect of palmitate stimulation on these markers to the levels observed in the unstimulated control.

[9] = test system: AML12; assay: Senescence reversal experiment, qPCR at day 10; type: cell-based, mouse; details: 2 μg/ml for 72 hours after 7 days senescence induction; vs IgG
Method: FIG. 25. (25A) Schematic of senescence reversal experiment for data shown in B-D. Senescent AML12 were generated for 7 days as described above. IgG/X203/X209 (2 μg/ml) was added into the cultures at the end of senescence induction period for 72 hours; cells were harvested at day 10 for RNA extraction and subsequent qPCR experiments. Relative mRNA expression of (25B) Cdkn1a (p21), (25C) Il1β, and (25D) Il11.
Briefly, senescent AML12 were generated for 7 days as described above, but IgG/X203/X209 (2 μg/ml) was added into the cultures at the end of senescence induction period for 72 hours.
(§4) Senescent AML12 were generated by treating the cells with a sub-lethal concentration of H2O2 (0.75 mM) for 1 hour, followed by 23 hours recovery per day, for 7 days as described (Tripathi, Yen, and Singh 2020, STAR Protocols 1 (2): 100064). For prevention study, AML12 cells were treated with 2 ug/ml of either IgG or X209 during the recovery period of the senescence induction stage (from day 1 to day 7); cells were harvested for total RNA collection at day 10. For reversal study, senescence was first induced for seven days followed by 2 ug/ml of IgG, X203, or X209 treatment for 3 days; cells were harvested for total RNA collection at day 10.
(§5) Total RNA was extracted from AML12 or snap-frozen tissues using Trizol (Invitrogen) and RNeasy Mini Kit (Qiagen). […] using iScript cDNA Synthesis Kit (Biorad). Gene expression analysis was performed on duplicate samples with either TaqMan (Applied Biosystems) for Il11 (Mm00434162) or fast SYBR green (Qiagen) technology using StepOnePlus™ (Applied Biosystem) for Ccl2, Ccl5, Gapdh, Il1β, Il6, Il8, p16, p21, Tnfα, over 40 cycles. Expression data were normalized to GAPDH mRNA expression and fold change was calculated using 2^−ΔΔct method.

[10] = test system: AML12; assay: Senescence prevention experiment, qPCR at day 10; type: cell-based, mouse; details: 2 μg/ml during recovery period, vs IgG
Method: FIG. 24. (24A) Schematic of senescence prevention experiment for data shown in B-F. Senescent AML12 were generated by treating the cells with a sub-lethal concentration of H2O2 (0.75 mM) for 1 hour, followed by 23 hours recovery per day, for 7 days as described by Tripathi et. al. (2020). IgG/X209 (2 μg/ml) was added into the cultures during the 23 hours recovery period for 10 days; cells were harvested at day 10 for RNA extraction and subsequent qPCR experiments. Relative mRNA expression of (24B) Cdkn2a (p16), (24C) Cdkn1a (p21), (24D) Il1β, (24E) Il8, and (24F) Il11.
Briefly, senescent AML12 were generated by treating the cells with a sub-lethal concentration of H2O2 as described by Tripathi et. al. (2020) STAR Protocols 1 (2): 100064. IgG/X209 (2 μg/ml) was added into the cultures during the 23 hours recovery period for 10 days. Relative mRNA expression of Cdkn2a (p16), Cdkn1a (p21), Il1β, Il8, and Il11, as measured by qPCR is shown in FIGS. 24B, 24C, 24D, 24E and 24F, respectively. Markers of senescence (P16 and p21) and markers of inflammation (IL-1b, IL-11 and […]) are diminished in cells that have undergone IL-11-mediated signalling antagonism by X209.
as §4, §5

[11] = test system: Primary human cardiac fibroblasts; assay: IL11 or TGFβ1 stimulated fibroblasts with X203, X209 or IgG, western blot; type: cell-based; details: IL11/TGFβ1 10 ng/ml, 24 hours; antibody 2 μg/ml
Method: FIG. 19. Western blot image showing the levels of p-ERK, ERK, p-P90RSK, P90RSK, p-LKB1, LKB1, p-AMPK, AMPK, p-mTOR, mTOR, p-p70S6K, p70S6K, p-S6RP, S6RP, SMA, and GAPDH in primary human cardiac fibroblasts that are unstimulated (BL) or stimulated for 24 hours with either IL11 or TGFβ1 in the presence of X203, X209, or IgG (11E10) isotype control. IL11/TGFβ1 (10 ng/ml), IgG/X203/X209 (2 μg/ml).
Primary human cardiac fibroblasts were stimulated with IL11 or TGFβ1, or unstimulated (BL).

N#CC(=C(/N)Sc1ccccc1N)/C(C#N)=C(\N)Sc1ccccc1N [U0126]
ERK-mediated inactivation of LKB1/AMPK [1]: prevents | IL11-induced mTORC1/P70S6K activation [1]: stops | ERK-mediated inactivation of LKB1/AMPK [2]: prevents | IL11-induced mTORC1/P70S6K activation [2]: stops | level of p-AMPK [3]: increases | level of p-LKB1 [3]: decreases

interferon-gamma: interferon-gamma (IFNγ)
expression of IL-11 [4]: reduction

COc1ccc2c(c1)c(CC(=O)O)c(C)n2C(=O)c1ccc(Cl)cc1 [indomethacin, reference compound]
expression of IL-11 [4]: reduction

IL-6: cytokine used as comparator stimulus to IL-11
inactivation of LKB1 or activation of AMPK [5]: does not induce | inactivation of LKB1 or activation of AMPK [6]: does not induce

B1: X209: mouse anti-mouse IL-11Rα IgG antagonist antibody; VH SEQ ID NO:24, VL SEQ ID NO:25 (antibody, V domains shown)
VH: QVQLQQPGAELVRPGSSVKLSCKASGYTFTNYWMHWLKQRPVQGLEWIGNIGPSDSKTHYNQKFKDKATLTVDKSSSTAYMQLNSLTSEDSAVYYCARGDYVLFTYWGQGTLVTVSA
VL: DIVLTQSPATLSLSPGERATLSCRASQSISNNLHWYQQKSHEAPRLLIKYASQSISGIPARFSGSGSGTDFTLSFSSLETEDFAVYFCQQSYSWPLTFGQGTKLEIK
gene expression of Il11 [7]: significantly reduce | gene expression of Il11b [7]: significantly reduce | gene expression of Tgfb [7]: significantly reduce | gene expression of p21 (Cdkn1a) [7]: significantly reduce | levels of p-AMPK and p-ACC [8]: increase | levels of phosphorylated markers p-ERK, p-p90RSK, p-LKB1, p-mTOR, p-p70S6K and p-S6RP [8]: reduces | inflammation marker IL-1 b [9]: significantly reduce | inflammation marker IL-11 [9]: significantly reduce | senescence marker p21 [9]: significantly reduce | marker of inflammation IL-1b mRNA [10]: diminished | marker of inflammation IL-6 [10]: diminished | marker of inflammation IL-11 mRNA [10]: diminished | marker of senescence P16 (Cdkn2a) mRNA [10]: diminished | marker of senescence p21 (Cdkn1a) mRNA [10]: diminished | level of phosphorylation of markers ERK, p90RSK, LKB1, mTOR, p70S6K and S6RP [11]: significantly reduce
